Measured values from patent publication US20080026996A1, “Selective Vpac2 Receptor Reptide Agonists” (ELI LILLY AND COMPANY, priority 2004, published 2008).
Where no end group is shown, it is not given here. [ ]: non-standard residue; d: D form. The star is where a group is joined. hArg = N=C(N)NCCCC[C@H](N)C(=O)O; Nle = CCCC[C@H](N)C(=O)O; Orn = NCCC[C@H](N)C(=O)O; Hexanoyl = CCCCCC(=O)*; Aib = CC(C)(N)C(=O)O

Columns and labels:
Assay in all cases: cell-based or functional assay
human VPAC2 receptor = target: T1, human VPAC2 receptor (human, UniProt P41587 24-438)
T1 sequence (looked up): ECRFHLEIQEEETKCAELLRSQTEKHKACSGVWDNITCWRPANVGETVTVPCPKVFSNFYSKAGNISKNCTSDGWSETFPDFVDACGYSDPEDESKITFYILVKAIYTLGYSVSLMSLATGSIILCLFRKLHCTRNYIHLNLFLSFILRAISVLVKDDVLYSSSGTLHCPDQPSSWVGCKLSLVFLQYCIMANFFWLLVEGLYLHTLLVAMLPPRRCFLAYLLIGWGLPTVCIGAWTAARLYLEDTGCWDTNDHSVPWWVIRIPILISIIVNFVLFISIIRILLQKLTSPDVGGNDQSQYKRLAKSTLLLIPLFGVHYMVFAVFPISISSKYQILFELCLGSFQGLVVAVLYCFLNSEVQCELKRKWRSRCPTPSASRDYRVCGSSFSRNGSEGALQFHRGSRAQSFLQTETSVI

rat VPAC2 receptor = target: T2, rat VPAC2 receptor (rat, UniProt P35000 23-437)
T2 sequence (looked up): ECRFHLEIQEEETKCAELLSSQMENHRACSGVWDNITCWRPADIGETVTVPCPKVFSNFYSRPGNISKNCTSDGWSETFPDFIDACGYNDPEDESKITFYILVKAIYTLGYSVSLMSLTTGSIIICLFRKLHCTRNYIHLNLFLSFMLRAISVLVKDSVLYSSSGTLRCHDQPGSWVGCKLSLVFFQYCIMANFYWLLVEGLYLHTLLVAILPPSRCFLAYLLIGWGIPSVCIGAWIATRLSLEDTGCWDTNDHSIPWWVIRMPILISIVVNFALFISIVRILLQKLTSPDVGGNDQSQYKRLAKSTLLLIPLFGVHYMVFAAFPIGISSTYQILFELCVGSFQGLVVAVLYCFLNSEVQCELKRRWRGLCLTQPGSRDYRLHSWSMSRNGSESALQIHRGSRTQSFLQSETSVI

rat VPAC1 receptor = target: T3, rat VPAC1 receptor (rat, UniProt P30083 31-459)
T3 sequence (looked up): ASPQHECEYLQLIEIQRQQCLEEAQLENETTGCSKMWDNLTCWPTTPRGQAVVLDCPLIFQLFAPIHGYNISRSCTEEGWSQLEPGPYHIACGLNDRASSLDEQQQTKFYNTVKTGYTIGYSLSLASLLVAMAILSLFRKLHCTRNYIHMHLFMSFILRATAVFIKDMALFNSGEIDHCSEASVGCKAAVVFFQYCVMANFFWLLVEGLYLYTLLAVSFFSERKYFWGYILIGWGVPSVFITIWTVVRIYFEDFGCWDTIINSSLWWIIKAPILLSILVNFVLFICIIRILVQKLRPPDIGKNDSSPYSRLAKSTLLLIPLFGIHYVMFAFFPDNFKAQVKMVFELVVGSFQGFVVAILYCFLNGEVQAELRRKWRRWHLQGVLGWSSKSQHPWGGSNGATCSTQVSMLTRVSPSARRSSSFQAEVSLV

Binder	EC50 cAMP, Alpha Screen (human VPAC2 receptor) [nM]	EC50 cAMP, DiscoveRx (rat VPAC2 receptor) [nM]	EC50 cAMP, DiscoveRx (rat VPAC1 receptor) [nM]
Hexanoyl-HSDAVFTDNYTRLLAKVAAKKYLQSIKNKRYGGPSSGAPPPS [P135]	0.18	0.05	–
Hexanoyl-HSDAVFTDNYTRLRKQVAAQKYLQSIKNKRYGGPSSGAPPPS [P150]	0.18	0.1	–
Hexanoyl-HSDAVFTDNYTRLQKQVAAKKYLQSIKNKRYGGPSSGAPPPS [P172]	0.29	0.11	–
Hexanoyl-HSDAVFTDNYTRLRQQVAAKKYLQSIKNKRYGGPSSGAPPPS [P177]	0.21	0.1	–
Hexanoyl-HGEGTFTDNYTRLRKQVAAKKYLQSIKNKRYGGPSSGAPPPS [P222]	0.51	34.9	43.9
Hexanoyl-HSDAVFTDNYTRL[Aib]KQLAA[Aib]KYLQSIKNKRYGGPSSGAPPPS (ends and bridges not checked) [P240]	0.51	0.36	24.5
Hexanoyl-HSDAVFTDNYTRL[Aib]KQVAA[Aib]KYLQSIKNKRYGGPSSGAPPPS (ends and bridges not checked) [P242]	0.8	0.46	72.2
Hexanoyl-HSDAVFTDNYTRL[Aib]KQVAAK[Aib]YLQSIKNKRYGGPSSGAPPPS (ends and bridges not checked) [P244]	2.03	1.85	127
Hexanoyl-HSDAVFTDNYTRL[Aib]KQVAAKKYLQSIKNKRYGGPSSGAPPPS (ends and bridges not checked) [P167]	0.17	0.24	6.88
Hexanoyl-HSDAVFTDNYTRL[Aib]KQVAAQKYLQSIKNKRYGGPSSGAPPPS (ends and bridges not checked) [P243]	0.28	0.79	157
Hexanoyl-HSDAVFTDNYTRLRKQVAA[Aib]KYLQSIKNKRYGGPSSGAPPPS (ends and bridges not checked) [P169]	0.14	0.07	1.32
Hexanoyl-HSDAVFTDNYTRLRKQVAAK[Aib]YLQSIKNKRYGGPSSGAPPPS (ends and bridges not checked) [P170]	0.18	0.15	–
Hexanoyl-HSDAVFTDNYTRLR[Aib]QVAAKKYLQSIKNKRYGGPSSGAPPPS (ends and bridges not checked) [P168]	0.27	0.05	–
Hexanoyl-HSEAVFTENYTRLR[Aib]QVAA[Aib]KYLQSIKNKRYGGPSSGAPPPS (ends and bridges not checked) [P314]	0.22	0.12	29.2
Hexanoyl-HSDAVFTDQYTRLR[Aib]QVAA[Aib]KYLQSIKQKRYGGPSSGAPPPS (ends and bridges not checked) [P315]	0.19	0.04	1.18
Hexanoyl-HSDAVFTDNYTRLK[Aib]QVAA[Aib]KYLQSIKNKRYGGPSSGAPPPS (ends and bridges not checked) [P318]	0.32	0.09	9.96
Hexanoyl-HSDAVFTDNYTRLR[Aib]KVAA[Aib]KYLQSIKNKRYGGPSSGAPPPS (ends and bridges not checked) [P321]	0.38	0.04	0.11
Hexanoyl-HSDAVFTDNYTRLR[Aib]QIAA[Aib]KYLQSIKNKRYGGPSSGAPPPS (ends and bridges not checked) [P322]	0.22	0.04	0.5
Hexanoyl-HSDAVFTDNYTRLR[Aib]QKAA[Aib]KYLQSIKNKRYGGPSSGAPPPS (ends and bridges not checked) [P323]	0.23	0.07	4.41
Hexanoyl-HSDAVFTDNYTRLR[Aib]QVAAK[Aib]YLQSIKNKRYGGPSSGAPPPS (ends and bridges not checked) [P264]	0.1	0.1	4.01
Hexanoyl-HSDAVFTDNYTRLR[Aib]QLAAK[Aib]YLQSIKNKRYGGPSSGAPPPS (ends and bridges not checked) [P284]	0.18	0.07	0.44
Hexanoyl-HSDAVFTDNYTRL[hArg]KQVAAKKYLQSIKNKRYGGPSSGAPPPS (ends and bridges not checked) [P305]	0.17	0.04	3.71
Hexanoyl-HSDAVFTDNYTRL[hArg][Orn]QVAAKKYLQSIKNKRYGGPSSGAPPPS (ends and bridges not checked) [P308]	0.26	0.09	9.74
Hexanoyl-HSDAVFTDNYTRLR[Aib]Q[Nle]AA[Aib]KYLQSIKNKRYGGPSSGAPPPS (ends and bridges not checked) [P325]	0.24	0.04	1.46
HSDAVFTDNYTXLRXQVAAXKYLQSIXXGGPSSGAPPPS (N-terminal hexanoyl (C6); Orn at 12; Aib at 15, 20; hR at 27, 28) [P335]	0.22	0.05	–
Hexanoyl-HSDAVFTDNYTRLRKQVAAKKYLQSIKNKKGGPSSGAPPPS [P121]	0.1	–	0.66
MHSDAVFTDNYTRLLAKLALQKYLQSIKNKRYGGPSSGAPPPS (N-terminal methionine added (M-)) [P140]	0.07	–	5.81
Hexanoyl-HSDAVFTDNYTRLRKQMAAQKYLNQLKKGGPSSGAPPPS [P143]	0.1	–	3.81
HSDAVFTDNYTXLRXQVAAXKYLQSIXNXGGPSSGAPPPS (N-terminal hexanoyl (C6); hR at 12, 27, 29; Aib at 15, 20) [P329]	–	0.15	–
